Values of other authors, collected in publication PMC6667839.
pKd: −log10 of the molar value.

Biological target: IL-33 112-270 (Homo sapiens) (UniProt O95760)
UniProt O95760, sequence (O95760 112-270): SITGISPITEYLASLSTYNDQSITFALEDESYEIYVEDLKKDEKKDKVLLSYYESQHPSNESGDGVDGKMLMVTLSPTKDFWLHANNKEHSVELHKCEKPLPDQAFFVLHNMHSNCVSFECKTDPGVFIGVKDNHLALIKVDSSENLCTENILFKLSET

In the case of sST2 (from UniProt Q01638), the pKd is given as 8.40.
